# Test results from patent publication US20150344570A1 (published 2015).
# T1: FcγRIIa R (human, UniProt P12318 34-217)
# T1 construct: extracellular domain; also called FcgRIIa R type; 2aR; not shown: His tag at the C terminus
# T1 sequence (looked up): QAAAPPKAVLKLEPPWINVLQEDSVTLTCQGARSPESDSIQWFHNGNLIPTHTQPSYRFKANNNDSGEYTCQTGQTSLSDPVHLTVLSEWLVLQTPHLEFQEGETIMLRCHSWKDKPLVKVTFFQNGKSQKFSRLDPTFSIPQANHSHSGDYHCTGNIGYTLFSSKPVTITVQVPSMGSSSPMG
# T2: FcγRIIb (human, UniProt P31994 43-217)
# T2 construct: extracellular domain; also called FcgRIIb; 2b; not shown: His tag at the C terminus
# T2 sequence (looked up): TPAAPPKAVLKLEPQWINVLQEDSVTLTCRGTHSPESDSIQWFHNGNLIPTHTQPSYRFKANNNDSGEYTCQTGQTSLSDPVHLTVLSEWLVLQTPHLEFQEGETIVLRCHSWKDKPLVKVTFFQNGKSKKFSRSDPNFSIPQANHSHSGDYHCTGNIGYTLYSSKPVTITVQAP
# B1: GpH7-A5/GpH7-B3 variant S267_08L/GpL16-k0 (antibody, human IgG1, kappa)
# heavy 1: not shown
# heavy 2: not shown
# light: DIVMTQSPLSLPVTPGEPASISCQASESLVHSNRNTYLHWYLQKPGQSPQLLIYKVSNRFSGVPDRFSGSGSGTDFTLKISRVEAEDVGVYYCSQNTHVPPTFGQGTKVEIERTVAAPSVFIFPPSDEQLKSGTASVVCLLNNFYPREAKVQWKVDNALQSGNSQESVTEQDSKDSTYSLSSTLTLSKADYEKHKVYACEVTHQGLSSPVTKSFNRGEC
# notes: Heterodimerized anti-glypican-3 IgG1; mutation in the GpH7-B3 chain only; also called He Ab
# B2: GpH7-A5/GpH7-B3 variant D270_05P/GpL16-k0 (antibody, human IgG1, kappa)
# heavy 1: not shown
# heavy 2: not shown
# light: B1 light
# notes: as for B1
# B3: GpH7-A5/GpH7-B3 variant L328_10E/GpL16-k0 (antibody, human IgG1, kappa)
# heavy 1: not shown
# heavy 2: not shown
# light: B1 light
# notes: as for B1
# B4: GpH7-A5/GpH7-B3 variant H268_02A/GpL16-k0 (antibody, human IgG1, kappa)
# heavy 1: not shown
# heavy 2: not shown
# light: B1 light
# notes: as for B1
# B5: GpH7-A5/GpH7-B3 variant H268_13S/GpL16-k0 (antibody, human IgG1, kappa)
# heavy 1: not shown
# heavy 2: not shown
# light: B1 light
# notes: as for B1
# B6: GpH7-A5/GpH7-B3 variant K326_07I/GpL16-k0 (antibody, human IgG1, kappa)
# heavy 1: not shown
# heavy 2: not shown
# light: B1 light
# notes: as for B1
# B7: GpH7-A5/GpH7-B3 variant A327_09D/GpL16-k0 (antibody, human IgG1, kappa)
# heavy 1: not shown
# heavy 2: not shown
# light: B1 light
# notes: as for B1
# B8: GpH7-A5/GpH7-B3 variant L328_12R/GpL16-k0 (antibody, human IgG1, kappa)
# heavy 1: not shown
# heavy 2: not shown
# light: B1 light
# notes: as for B1
# B9: GpH7-A5/GpH7-B3 variant G236_09D/GpL16-k0 (antibody, human IgG1, kappa)
# heavy 1: not shown
# heavy 2: not shown
# light: B1 light
# notes: as for B1
# B10: GpH7-A5/GpH7-B3 variant L328_11K/GpL16-k0 (antibody, human IgG1, kappa)
# heavy 1: not shown
# heavy 2: not shown
# light: B1 light
# notes: as for B1
# B11: GpH7-A5/GpH7-B3 variant N325_07I/GpL16-k0 (antibody, human IgG1, kappa)
# heavy 1: not shown
# heavy 2: not shown
# light: B1 light
# notes: as for B1
# B12: GpH7-A5/GpH7-B3 variant L328_04F/GpL16-k0 (antibody, human IgG1, kappa)
# heavy 1: not shown
# heavy 2: not shown
# light: B1 light
# notes: as for B1
# B13: GpH7-A5/GpH7-B3 variant L328_09D/GpL16-k0 (antibody, human IgG1, kappa)
# heavy 1: not shown
# heavy 2: not shown
# light: B1 light
# notes: as for B1
# B14: GpH7-A5/GpH7-B3 variant A327_18N/GpL16-k0 (antibody, human IgG1, kappa)
# heavy 1: not shown
# heavy 2: not shown
# light: B1 light
# notes: as for B1
# B15: GpH7-A5/GpH7-B3 variant H268_10E/GpL16-k0 (antibody, human IgG1, kappa)
# heavy 1: not shown
# heavy 2: not shown
# light: B1 light
# notes: as for B1
# B16: GpH7-A5/GpH7-B3 variant K326_08L/GpL16-k0 (antibody, human IgG1, kappa)
# heavy 1: not shown
# heavy 2: not shown
# light: B1 light
# notes: as for B1
# B17: GpH7-A5/GpH7-B3 variant S239_09D/GpL16-k0 (antibody, human IgG1, kappa)
# heavy 1: not shown
# heavy 2: not shown
# light: B1 light
# notes: as for B1
# B18: GpH7-A5/GpH7-B3 variant A327_07I/GpL16-k0 (antibody, human IgG1, kappa)
# heavy 1: not shown
# heavy 2: not shown
# light: B1 light
# notes: as for B1
# Target: T1, FcγRIIa R
# Experiment: SPR, relative to GpH7-A5/GpH7-B3/GpL16-k0
row,He/Con_2aR [control = 100],Binder
1,72.1,B1
2,7.5,B2
3,105,B3
4,133,B4
5,127,B5
6,147,B6
7,124,B7
8,5,B8
9,106,B9
10,2.5,B10
11,133,B11
12,138,B12
13,119,B13
14,88.9,B14
15,148,B15
16,137,B16
17,137,B17
18,98,B18

# Target: T2, FcγRIIb
# Experiment: SPR, relative to GpH7-A5/GpH7-B3/GpL16-k0
row,He/Con_2b [control = 100],Binder
1,109,B1
2,13.9,B2
3,172,B3
4,167,B4
5,160,B5
6,199,B6
7,172,B7
8,9.2,B8
9,167,B9
10,7.5,B10
11,171,B11
12,219,B12
13,199,B13
14,113,B14
15,230,B15
16,177,B16
17,206,B17
18,127,B18

# Target: T1, FcγRIIa R
# Experiment: SPR; He/Con_2aR divided by He/Con_2b (FcγRIIa R over FcγRIIb)
row,He_2aR/2b [ratio],Binder
1,0.66,B1
2,0.54,B2
3,0.61,B3
4,0.8,B4
5,0.8,B5
6,0.74,B6
7,0.72,B7
8,0.54,B8
9,0.64,B9
10,0.33,B10
11,0.78,B11
12,0.63,B12
13,0.6,B13
14,0.79,B14
15,0.64,B15
16,0.77,B16
17,0.66,B17
18,0.77,B18
